Results taken from patent publication US20250388696A1 (NAVIGO PROTEINS, published 2025).
Substitutions are numbered along the chain they refer to. Where no end group is shown, it is not given here.

T1: human fibroblast activation protein (hFAP) expressed on the surface of HEK293-hFAP cells (human, UniProt Q12884 1-760)
T1 construct: whole, on cells; FAP overexpressing HEK293 cell line
T1 sequence (looked up): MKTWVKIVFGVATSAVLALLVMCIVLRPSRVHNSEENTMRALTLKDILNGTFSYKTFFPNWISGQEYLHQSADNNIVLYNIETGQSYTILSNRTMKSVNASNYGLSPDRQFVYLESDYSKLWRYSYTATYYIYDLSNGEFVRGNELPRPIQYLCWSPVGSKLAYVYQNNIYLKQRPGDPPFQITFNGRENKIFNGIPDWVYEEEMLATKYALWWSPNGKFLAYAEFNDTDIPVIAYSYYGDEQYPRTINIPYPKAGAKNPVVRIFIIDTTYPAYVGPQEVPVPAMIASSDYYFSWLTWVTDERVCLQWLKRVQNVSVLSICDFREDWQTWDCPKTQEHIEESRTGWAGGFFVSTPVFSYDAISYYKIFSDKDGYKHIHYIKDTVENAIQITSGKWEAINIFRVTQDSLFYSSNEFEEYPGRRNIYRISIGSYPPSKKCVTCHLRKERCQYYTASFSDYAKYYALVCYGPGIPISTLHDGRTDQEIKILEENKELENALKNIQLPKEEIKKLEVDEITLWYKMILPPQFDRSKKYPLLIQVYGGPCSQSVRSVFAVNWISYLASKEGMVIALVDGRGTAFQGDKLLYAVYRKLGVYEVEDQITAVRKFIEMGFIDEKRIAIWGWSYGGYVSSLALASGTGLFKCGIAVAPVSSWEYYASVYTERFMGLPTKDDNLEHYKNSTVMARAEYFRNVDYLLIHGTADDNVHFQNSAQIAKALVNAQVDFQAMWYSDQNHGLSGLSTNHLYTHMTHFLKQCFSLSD

T2: hFAP-Fc (human, UniProt Q12884 26-760, limits assumed)
T2 construct: also called Fc-tagged target (FAP)
T2 sequence (looked up): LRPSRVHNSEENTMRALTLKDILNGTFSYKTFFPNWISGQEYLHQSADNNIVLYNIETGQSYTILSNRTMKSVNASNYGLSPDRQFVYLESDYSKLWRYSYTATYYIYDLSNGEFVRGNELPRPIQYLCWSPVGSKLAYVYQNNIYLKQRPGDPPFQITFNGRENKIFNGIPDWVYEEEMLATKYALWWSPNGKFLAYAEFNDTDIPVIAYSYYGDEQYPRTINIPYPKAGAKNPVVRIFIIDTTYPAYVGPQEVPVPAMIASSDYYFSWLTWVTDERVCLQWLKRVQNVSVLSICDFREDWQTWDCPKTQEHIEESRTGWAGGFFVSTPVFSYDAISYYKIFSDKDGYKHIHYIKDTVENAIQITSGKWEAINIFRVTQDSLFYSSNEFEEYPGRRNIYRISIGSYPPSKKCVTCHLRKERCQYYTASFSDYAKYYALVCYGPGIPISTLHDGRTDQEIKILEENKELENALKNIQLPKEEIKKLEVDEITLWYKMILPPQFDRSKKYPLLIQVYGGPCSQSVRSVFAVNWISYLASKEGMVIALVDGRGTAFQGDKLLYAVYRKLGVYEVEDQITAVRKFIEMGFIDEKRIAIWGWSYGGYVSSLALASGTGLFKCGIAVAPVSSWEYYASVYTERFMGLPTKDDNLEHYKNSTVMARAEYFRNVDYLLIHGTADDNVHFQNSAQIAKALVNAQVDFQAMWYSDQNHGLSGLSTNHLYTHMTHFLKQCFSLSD

B1: Fusion proteins with albumin binding domain c42 (SEQ ID NO: 34) (designed binder, not shown: small tags and cut ends)
chain: LAEAKVLALKELDKYGISNYYKNLINNAKTIESVKALKDEIVAA
modifications: also: part of fusion protein, targeting moiety, linker, tag and order not given here
B2: Fusion proteins with albumin binding domain c45 (SEQ ID NO: 35) (designed binder, not shown: small tags and cut ends)
chain: B1 chain with Y20G, S33G
modifications: also: part of fusion protein, targeting moiety, linker, tag and order not given here
B3: Fusion proteins with albumin binding domain c50 (SEQ ID NO: 38) (designed binder, not shown: small tags and cut ends)
chain: B1 chain with Y21G, S33G, K35E, E40A, V42L
modifications: also: part of fusion protein, targeting moiety, linker, tag and order not given here
B4: Fusion proteins with albumin binding domain c49 (SEQ ID NO: 37) (designed binder, not shown: small tags and cut ends)
chain: B1 chain with Y20D, S33G, K35E, E40A, V42L
modifications: also: part of fusion protein, targeting moiety, linker, tag and order not given here
B5: fusion protein 218692 (designed binder, not shown: small tags and cut ends)
chain (part 1 of 2): not shown
chain (part 2 of 2): LAEAKVLAIKELDKAGISNYYFNLINNAKTVEGVKDLKAQIVAA
notes: also called CID 218692
B6: fusion protein 218703 (designed binder, not shown: small tags and cut ends)
chain (part 1 of 2): not shown
chain (part 2 of 2): B1 chain with S33G, D39A, E40Q
notes: also called CID 218703
B7: fusion protein 218687 (designed binder, not shown: small tags and cut ends)
chain (part 1 of 2): not shown
chain (part 2 of 2): B1 chain with I31V, S33G, D39E, E40A
notes: also called CID 218687
B8: fusion protein 218708 (designed binder, not shown: small tags and cut ends)
chain (part 1 of 2): not shown
chain (part 2 of 2): LAEAKVLALKELDKYGISNYYKNLINNAKTVEGVKALKEAIVAALP
notes: also called CID 218708
B9: fusion protein 218691 (designed binder, not shown: small tags and cut ends)
chain (part 1 of 2): not shown
chain (part 2 of 2): B1 chain with S33G, D39A, E40Q
notes: also called CID 218691
B10: fusion protein 218699 (designed binder, not shown: small tags and cut ends)
chain (part 1 of 2): not shown
chain (part 2 of 2): B1 chain with I31V, S33G, D39E, E40A
notes: also called CID 218699
B11: fusion protein 218704 (designed binder, not shown: small tags and cut ends)
chain (part 1 of 2): not shown
chain (part 2 of 2): B5 chain (part 2 of 2)
notes: also called CID 218704

molecular target: T3, mouse serum albumin (mouse, UniProt P07724 25-608); experiment: SPR, MSA immobilised
T3 construct: also called MSA
Protocol: (§1) Recombinant protein A, HSA, MSA or target (either ED-B or Her2) was immobilized on a High Capacity Amine sensor chip (Bruker) after NHS/EDC activation with a Sierra SPR-32 system (Bruker). The chip was equilibrated with SPR running buffer (PBS 0.05%, Tween pH 7.3). Injection of ethanolamine after target immobilization was used to block free NHS groups. To determine the binding of fusion proteins to FAP, the Fc-tagged target was injected with 60 or 30 nM to Protein A coupled spots followed by the injection of fusion proteins.
(§2) Binding proteins were applied to the chip in serial dilutions with a flow rate of 30 μl/min. Upon binding, analyte accumulated on the surface increasing the refractive index. This change in the refractive index was measured in real time and plotted as response or resonance units versus time. The association was performed for 120 seconds and the dissociation for 180 seconds. After each run, the chip surface was regenerated with 30 μl regeneration buffer (10 mM glycine pH 2.0 or pH 1.5) and equilibrated with running buffer. Binding studies were carried out using the Sierra SPR-32 system (Bruker); data evaluation was operated via the Sierra Analyser software, provided by the manufacturer, by the use of the Langmuir 1:1 model (RI=0).

Question: Which Kd does the source give for B1 here?
Answer: ≥ 100 nM

Question: B2 was tested. Which Kd did it give?
Answer: ≥ 100 nM

Question: For B3, which Kd is on record?
Answer: ≥ 100 nM

Question: Which Kd does the source give for B4 here?
Answer: ≥ 100 nM

molecular target: T4, human serum albumin (human, UniProt P02768 25-609); experiment: SPR, HSA immobilised on the chip, pH 7.3, 1:1 Langmuir fit
T4 construct: also called HSA
Protocol: as §1, §2

T4 sequence (P02768 25-609 limits assumed): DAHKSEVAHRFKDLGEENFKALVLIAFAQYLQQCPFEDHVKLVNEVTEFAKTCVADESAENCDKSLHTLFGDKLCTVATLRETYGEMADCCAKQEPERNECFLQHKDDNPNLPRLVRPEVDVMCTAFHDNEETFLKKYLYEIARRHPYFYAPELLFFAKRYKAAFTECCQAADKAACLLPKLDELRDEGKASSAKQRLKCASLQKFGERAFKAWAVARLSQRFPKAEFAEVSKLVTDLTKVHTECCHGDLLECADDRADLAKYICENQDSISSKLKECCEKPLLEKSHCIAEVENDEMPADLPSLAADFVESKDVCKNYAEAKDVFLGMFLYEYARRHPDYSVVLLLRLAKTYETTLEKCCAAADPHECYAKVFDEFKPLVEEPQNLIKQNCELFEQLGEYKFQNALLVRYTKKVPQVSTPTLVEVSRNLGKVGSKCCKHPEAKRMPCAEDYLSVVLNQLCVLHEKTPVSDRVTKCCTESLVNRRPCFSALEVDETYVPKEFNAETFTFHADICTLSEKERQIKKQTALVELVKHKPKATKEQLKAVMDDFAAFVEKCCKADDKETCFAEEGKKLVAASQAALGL

Question: B5 was tested. Which Kd did it give?
Answer: 5 nM

Question: Which Kd does the source give for B6 here?
Answer: 5.9 nM

Question: B7 was tested. Which Kd did it give?
Answer: 0.9 nM

Question: With B8 as the binder, how does the Kd read?
Answer: 7.3 nM

molecular target: T4, human serum albumin; experiment: SPR, HSA immobilised
Protocol: as §1, §2

Question: Which Kd does the source give for B1 here?
Answer: ≥ 100 nM

Question: With B2 as the binder, how does the Kd read?
Answer: ≥ 100 nM

Question: For B3, which Kd is on record?
Answer: ≥ 100 nM

Question: For B4, which Kd is on record?
Answer: ≥ 100 nM

molecular target: T1, human fibroblast activation protein …; experiment: flow cytometry on HEK293-hFAP cells
Protocol: Fusion proteins were tested with a concentration of 1 μM, 100 nM, 10 nM, 1 nM or 0.1 nM on hFAP expressing HEK293-hFAP-cells. To exclude an unspecific binding, fusion proteins were also incubated on control cells HEK293-pEntry with the same concentrations. […] Supernatants were removed after 45 min, cells were washed in blocking buffer and 100 μl/well rabbit anti-StrepTag antibody (GenScript; A00626), 1:300 diluted in FACS blocking buffer were added. […] Flow cytometry measurement was conducted on the Guava easyCyte 5HT device from Merck-Millipore at excitation wavelength 488 nm and emission wavelength 525/30 nm.

Question: Does B9 bind?
Answer: binds

Question: Does B10 bind?
Answer: binds

Question: Does B11 bind?
Answer: binds

molecular target: T2, hFAP-Fc; experiment: SPR, Fc-tagged FAP captured on immobilised protein A, pH 7.3, 1:1 Langmuir fit
Protocol: as §1, §2

Question: For B5, which Kd is on record?
Answer: 4 nM

Question: How did the Kd turn out when B6 was run?
Answer: 5.8 nM

Question: Which Kd does the source give for B7 here?
Answer: 3.4 nM

Question: B8 was tested. Which Kd did it give?
Answer: 4.4 nM
